Like-named read-outs stand apart in the source and are kept apart here.

By Kd is commonly meant the concentration at which binding is half-saturated. One may read the kon as a measure of how fast the partners come together. A word on the koff: it is the rate constant with which the complex falls apart.

Common to all, as to assay: BIAcore SPR
In assay [1] the target is T1, Human Serum Albumin (human, UniProt P02768 25-609).
T1 construct: mature; purified protein on CM5 chips for BIAcore; also called HSA; human SA
From the text: (§1) MSA antigen was obtained from Sigma (essentially fatty acid free, ˜99% (agarose gel electrophoresis), lyophilized powder Cat. No. A3559) and CSA was purified from Cynomolgus serum albumin using prometic blue resin (Amersham).

Assay [2] addresses T2, Rat Serum Albumin (rat, UniProt P02770 25-608).
T2 construct: mature; purified protein on CM5 chips for BIAcore; also called RSA; rat SA
From the text: as §1

Assay [3] has as its target T3, Cynomolgus monkey Serum Albumin (Cynomolgus monkey, UniProt A2V9Z4 25-608).
T3 construct: mature; purified protein on CM5 chips for BIAcore; also called CSA; cyno SA
From the text: as §1

The target in a further assay is T4, mouse serum albumin (mouse, UniProt P07724 25-608).
T4 construct: mature; purified protein on CM5 chips for BIAcore; also called MSA; mouse SA
T4 sequence (P07724 25-608): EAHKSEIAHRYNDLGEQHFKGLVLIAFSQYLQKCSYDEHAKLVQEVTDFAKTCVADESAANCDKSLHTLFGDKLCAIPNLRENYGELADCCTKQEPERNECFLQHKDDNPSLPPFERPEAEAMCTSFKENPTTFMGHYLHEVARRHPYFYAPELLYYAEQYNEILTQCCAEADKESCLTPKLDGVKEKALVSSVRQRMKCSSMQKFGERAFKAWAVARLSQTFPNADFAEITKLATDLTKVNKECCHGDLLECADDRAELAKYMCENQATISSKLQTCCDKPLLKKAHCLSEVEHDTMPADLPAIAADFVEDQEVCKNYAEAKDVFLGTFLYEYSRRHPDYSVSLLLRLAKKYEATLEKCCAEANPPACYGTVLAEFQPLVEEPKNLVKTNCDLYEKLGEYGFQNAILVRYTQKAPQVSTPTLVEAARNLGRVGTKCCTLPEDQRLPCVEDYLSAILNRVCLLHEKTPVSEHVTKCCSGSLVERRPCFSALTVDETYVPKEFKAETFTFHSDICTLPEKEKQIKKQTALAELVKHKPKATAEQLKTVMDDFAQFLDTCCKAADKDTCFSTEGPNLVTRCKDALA

Assay [4] has as its target T1, Human Serum Albumin. The source holds these as a separate data set.
Assay [5] has as its target T2, Rat Serum Albumin. The source holds these as a separate data set.
Assay [6] concerns the target T3, Cynomolgus monkey Serum Albumin. The source holds these as a separate data set.

T2 sequence (P02770 25-608): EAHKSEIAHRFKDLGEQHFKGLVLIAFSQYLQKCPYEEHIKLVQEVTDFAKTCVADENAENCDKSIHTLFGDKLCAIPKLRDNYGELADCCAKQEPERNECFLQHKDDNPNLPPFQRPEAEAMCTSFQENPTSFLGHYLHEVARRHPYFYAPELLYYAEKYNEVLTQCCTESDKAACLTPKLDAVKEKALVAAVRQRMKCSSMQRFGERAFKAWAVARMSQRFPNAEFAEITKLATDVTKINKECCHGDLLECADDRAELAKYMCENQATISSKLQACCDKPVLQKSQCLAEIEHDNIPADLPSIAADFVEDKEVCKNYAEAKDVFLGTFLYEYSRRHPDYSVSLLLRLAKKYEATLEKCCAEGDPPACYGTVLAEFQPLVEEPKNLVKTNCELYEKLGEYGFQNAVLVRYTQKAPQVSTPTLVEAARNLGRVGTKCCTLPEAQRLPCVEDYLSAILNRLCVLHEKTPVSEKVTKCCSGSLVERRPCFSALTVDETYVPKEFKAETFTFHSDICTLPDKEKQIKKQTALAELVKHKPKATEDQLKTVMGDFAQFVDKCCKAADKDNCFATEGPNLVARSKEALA
T3 sequence (A2V9Z4 25-608): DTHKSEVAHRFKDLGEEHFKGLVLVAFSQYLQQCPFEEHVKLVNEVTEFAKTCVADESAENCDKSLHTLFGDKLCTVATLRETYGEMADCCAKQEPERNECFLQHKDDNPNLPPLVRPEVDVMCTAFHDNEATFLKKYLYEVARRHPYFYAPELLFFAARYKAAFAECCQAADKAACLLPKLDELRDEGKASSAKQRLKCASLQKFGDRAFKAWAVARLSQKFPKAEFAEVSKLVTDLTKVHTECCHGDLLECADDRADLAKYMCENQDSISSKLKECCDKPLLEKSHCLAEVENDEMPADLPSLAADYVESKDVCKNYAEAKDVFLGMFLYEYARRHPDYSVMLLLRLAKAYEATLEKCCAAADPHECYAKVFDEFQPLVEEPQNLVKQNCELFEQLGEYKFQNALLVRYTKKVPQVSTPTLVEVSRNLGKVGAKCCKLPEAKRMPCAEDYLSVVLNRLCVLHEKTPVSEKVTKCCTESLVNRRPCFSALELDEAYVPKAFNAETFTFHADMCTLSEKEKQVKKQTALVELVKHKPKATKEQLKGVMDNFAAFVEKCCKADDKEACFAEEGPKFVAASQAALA
From the text for mouse serum albumin: as §1

B1: DOM7h-11-56 (other)
VL: DIQMTQSPSSLSASVGDRVTISCRASRPIGTMLSWYQQKPGKAPKLLILAFSRLQSGVPSRFSGSGSGTDFTLTISSLQPEDFATYYCAQAGTHPTTFGQGTKVEIKW
notes: Vk dAb
For the molecule B1, the Kd with Human Serum Albumin [1] is 1.6 nM; in the assay with Rat Serum Albumin [2] it was 23.4 nM; in assay [3], 5.2 nM; in the assay with mouse serum albumin, 7.6 nM.

B2: DOM7h-11-88 (other)
VL: DIQMTQSPSSLSASVGDRVTITCRASRPIGTMLSWYQQKPGKAPKLLILAFSRLQSGVPSRFSGSGSGTDFTLTISSLQPEDFATYYCAQAGTHHTTFGQGTKVENKR
notes: Vk dAb; also called DOM7h-11-67 W108R
Turning to B2, in the assay with Human Serum Albumin [4], the Ka came to 1.51e+08 M⁻¹, the Kd is 6.71 nM and the kon amounted to 1.14e+06 M⁻¹ s⁻¹. Further, in the assay with Rat Serum Albumin [5], the Ka is 5.96e+07 M⁻¹, the Kd amounted to 16.9 nM and the kon is 846000 M⁻¹ s⁻¹.

B3: DOM7h-11-80 (other)
VL: DIQMTQSPSSLSASVGDRVTIFCRASRPIGTMLSWYQQKPGKAPKLLILAFSRLQSGVPSRFSGSGSGTDFTLTISSLQPEDFATYYCAQAGTHPTTFGQGTKVEIKW
notes: Vk dAb
In the case of B3, the Kd with Human Serum Albumin [1] was determined as 2.1 nM; in the assay with Rat Serum Albumin [2], 24.1 nM; in assay [3], 5.5 nM; with mouse serum albumin, 10.9 nM.

B4: DOM7h-11-65 (other)
VL: DIQMTQSPSSLSASVGDRVTITCRASRPIGTMLSWYQQKPGKAPKLLILAFSRLQSGVPSRFSGSGSGTDFTLTISSLQPEDVATYYCAQAGTHPTTFGQGTKVEIKW
notes: Vk dAb
Consider B4, for which the Ka in the assay with Human Serum Albumin [1] was determined as 5.52e+08 M⁻¹; with Rat Serum Albumin [2], 4.06e+07 M⁻¹; in assay [3], 6.35e+07 M⁻¹. In addition, the dissociation constant (Kd) amounted to 1.8 nM with Human Serum Albumin [1], 24.6 nM with Rat Serum Albumin [2], 15.7 nM in assay [3] and 9.4 nM in the assay with mouse serum albumin. Also, the kon is 1.3e+06 M⁻¹ s⁻¹ with Human Serum Albumin [1], 780000 M⁻¹ s⁻¹ with Rat Serum Albumin [2] and 1.19e+06 M⁻¹ s⁻¹ in assay [3].

B5: DOM7h-11-90 (other)
VL: DIQMTQSPSSLSASVGDRVTITCRASRPIGTMLSWYQQKPGKAPKLLILAFSRLQSGVPSRFSGSGSGTDFTLTISNLQPEDFATYYCAQAGTHPTTFGQGTKVEIKR
notes: Vk dAb; also called DOM7h-11-57 W108R/N106I
For B5, in the assay with Human Serum Albumin [4], the Ka came to 5.27e+07 M⁻¹, the Kd turned out to be 20.2 nM, the koff stood at 0.0087 s⁻¹ and the kon was 469000 M⁻¹ s⁻¹. Moreover, in the assay with Rat Serum Albumin [5], the Ka was found to be 1.91e+07 M⁻¹, the Kd came to 53.6 nM and the kon was determined as 376000 M⁻¹ s⁻¹. Also, in assay [6], the Ka amounted to 1.01e+08 M⁻¹, the Kd is 9.99 nM and the kon turned out to be 747000 M⁻¹ s⁻¹.

B6: DOM7h-11-79 (other)
VL: DIQMTQSPSSLSASVGDRVTITCRASRPIGTMLSWYQQKPGKAPKLLILAFSRLQSGVPSRFSGSGSGTDFTLTISSLQPEDFATYYCAQTGTHPTTFGQGTKVEIKW
notes: Vk dAb
In the case of B6, the Kd with Human Serum Albumin [1] worked out at 5.9 nM; with Rat Serum Albumin [2] it was 11.1 nM; in assay [3] it was 11.7 nM; with mouse serum albumin, 6.9 nM.

B7: DOM7h-11-57 (other)
VL: DIQMTQSPSSLSASVGDRVTITCRASRPIGTMLSWYQQKPGKAPKLLILAFSRLQSGVPSRFSGSGSGTDFTLTISNLQPEDFATYYCAQAGTHPTTFGQGTKVEIKW
notes: Vk dAb
For B7, the figures for the Ka (in the assay with Human Serum Albumin [1]; with Rat Serum Albumin [2]; in assay [3]) were 5.52e+08 M⁻¹, 3.42e+07 M⁻¹ and 1.63e+08 M⁻¹, respectively. In addition, the Kd with Human Serum Albumin [1] came out at 1.8 nM; with Rat Serum Albumin [2], 29.2 nM; in assay [3] it was 6.1 nM; in the assay with mouse serum albumin, 10.9 nM. Further, the kon was found to be 1.22e+06 M⁻¹ s⁻¹ with Human Serum Albumin [1], 566000 M⁻¹ s⁻¹ with Rat Serum Albumin [2] and 1.34e+06 M⁻¹ s⁻¹ in assay [3].

B8: DOM7h-11-67 (other)
VL: DIQMTQSPSSLSASVGDRVTITCRASRPIGTMLSWYQQKPGKAPKLLILAFSRLQSGVPSRFSGSGSGTDFTLTISSLQPEDFATYYCAQAGTHHTTFGQGTKVENKW
notes: Vk dAb
Regarding B8, the figures for the Ka (with Human Serum Albumin [1]; with Rat Serum Albumin [2]; in assay [3]) were 1.12e+09 M⁻¹, 8.6e+07 M⁻¹ and 3.69e+08 M⁻¹, respectively. Further, the Kd amounted to 0.9 nM in the assay with Human Serum Albumin [1], 11.6 nM with Rat Serum Albumin [2], 2.7 nM in assay [3] and 6.7 nM with mouse serum albumin. The kon with Human Serum Albumin [1] stood at 1.75e+06 M⁻¹ s⁻¹; with Rat Serum Albumin [2], 1.33e+06 M⁻¹ s⁻¹; in assay [3] it was 2.03e+06 M⁻¹ s⁻¹.

B9: DOM7h-11-69 (other)
VL: DIQMTQSPSSLSASVGDRVTITCRASRPIGTMLSWYQQKPGKAPKLLILAFSRLQSGVPSRFSGSGSGTDFTLTISSLQPEDFATYYCAQAGVHPTTFGQGTKVEIKR
notes: Vk dAb
As to B9, the Kd with Human Serum Albumin [1] turned out to be 3.2 nM; with Rat Serum Albumin [2] it was 27.1 nM; in assay [3], 5.9 nM; with mouse serum albumin it was 10 nM.

B10: DOM7h-11-86 (other)
VL: DIQMTQSPSSLSASVGDRVTITCRASRPIGTMLSWYQQKPGKAPKLLILAFSRLQSGVPSRFSGSGSGTDFTLTISSLQPEDVATYYCAQAGTHPTTFGQGTKVEIKR
notes: Vk dAb; also called DOM7h-11-65 W108R/N106I
In the assay with Human Serum Albumin [4], B10 gave a Ka of 9.51e+07 M⁻¹, a Kd of 10.7 nM and a kon of 790000 M⁻¹ s⁻¹. In the assay with Rat Serum Albumin [5], this molecule displayed a Ka of 2.8e+07 M⁻¹, a Kd of 37.8 nM and a kon of 560000 M⁻¹ s⁻¹. In assay [6], the Ka is 1.08e+08 M⁻¹, the Kd came out at 13.4 nM and the kon was found to be 833000 M⁻¹ s⁻¹.

B11: DOM7h-11-68 (other)
VL: DIQMTQSPSSLSASVGDRVTITCRASRPIGTMLSWYQQKPGEAPKLLILAFSRLQSGVPSRFSGSGSGTDFTLTISSLQPEDFATYYCAQTGTHPTTFGQGTKVEIKW
notes: Vk dAb
Turning to B11, the Kd with Human Serum Albumin [1] stood at 33.5 nM; in the assay with Rat Serum Albumin [2], 25.3 nM; in assay [3], 37.9 nM; with mouse serum albumin, 15.5 nM.

B12: DOM7h-11-87 (other)
VL: DIQMTQSPSSLSASVGDRVTITCRASRPIGTMLSWYQQKPGKAPKLLILAFSRLQSGVPSRFSGSGSGTDFTLTISSLQPEDFATYYCAQAGTHHTTFGQGTKVEIKR
notes: Vk dAb; also called DOM7h-11-67 W108R/N106I
On to B12, for which the Ka is 1.37e+08 M⁻¹ in the assay with Human Serum Albumin [4], 5.77e+07 M⁻¹ with Rat Serum Albumin [5] and 2.47e+08 M⁻¹ in assay [6]. Besides, the Kd with Human Serum Albumin [4] was 7.39 nM; with Rat Serum Albumin [5] it was 17.6 nM; in assay [6], 4.21 nM. Besides, the results for the kon (in the assay with Human Serum Albumin [4]; in the assay with Rat Serum Albumin [5]; in assay [6]) were 1.17e+06 M⁻¹ s⁻¹, 830000 M⁻¹ s⁻¹ and 1.37e+06 M⁻¹ s⁻¹, respectively.
